Laboratory results as given in patent US20050277167A1 (published 2005).

Biological target: T1, chicken prolyl 3-hydroxylase 1 (chicken P3H1) (chicken, UniProt Q6JHU8 15-725)
T1 construct: Native protein from chick embryos (gelatin sepharose, then 1C10 antibody column); also called chick homologue of leprecan; 90 kDa protein
T1 sequence: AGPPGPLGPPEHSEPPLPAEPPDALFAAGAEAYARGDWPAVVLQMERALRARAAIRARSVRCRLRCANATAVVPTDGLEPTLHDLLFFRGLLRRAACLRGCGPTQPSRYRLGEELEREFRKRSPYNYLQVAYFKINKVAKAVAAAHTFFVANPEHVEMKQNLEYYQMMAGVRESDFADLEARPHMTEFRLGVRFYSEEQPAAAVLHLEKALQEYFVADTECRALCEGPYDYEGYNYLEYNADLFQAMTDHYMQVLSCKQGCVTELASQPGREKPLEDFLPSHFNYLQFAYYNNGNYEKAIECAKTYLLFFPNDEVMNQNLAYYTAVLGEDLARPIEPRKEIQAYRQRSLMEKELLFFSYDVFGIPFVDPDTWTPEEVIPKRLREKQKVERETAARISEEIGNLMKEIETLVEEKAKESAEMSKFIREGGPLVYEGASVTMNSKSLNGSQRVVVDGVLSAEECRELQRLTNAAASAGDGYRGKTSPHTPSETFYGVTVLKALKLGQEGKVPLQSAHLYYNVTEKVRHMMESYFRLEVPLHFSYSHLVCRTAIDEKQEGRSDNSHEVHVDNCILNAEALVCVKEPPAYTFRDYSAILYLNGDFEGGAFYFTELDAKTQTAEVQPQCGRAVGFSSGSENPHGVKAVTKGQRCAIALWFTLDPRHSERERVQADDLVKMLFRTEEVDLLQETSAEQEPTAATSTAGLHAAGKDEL
Experiment: co-retention on 1C10 (anti-P3H1) column, elution at pH 6 and 0.5 M NaCl, SDS-PAGE and sequencing
Method: The antibody was produced and selected by standard methods and specificity of the antibody was determined using immunoblotting and ELISA techniques. The antibody recognizes both nonreduced and reduced (at much lower affinity) P3H1 and was used to create an affinity column for the purpose of protein purification. Briefly, a 2 ml column was created using approximately 10 mg of the 1C10 antibody and AminoLink® plus coupling gel (Pierce) following the manufacturer's instructions. Pooled and dialyzed peak fractions from the gelatin sepharose elution were then loaded onto the antibody column and the flow through was collected and concentrated for further purification of prolyl 4-hydroxylase and PDI by sieve chromatography on superose 12 resin (Pharmacia). The 1C10 antibody column was washed with 5 volumes of PBS (procedure described in Current Protocols in Protein Science Online), and then washed with 5 volumes of wash B buffer containing 50 mM sodium phosphate, pH 6.0, 0.5 M NaCl, and 0.1% Triton X-100 to elute associated proteins. […] Sequences of proteins eluted with the wash B buffer were determined by Edman degradation in a protein sequencer (Applied Biosystems Procise Sequencer). […]

B1: cyclophilin B (CYPB) (enzyme)
chain: not shown
notes: Native protein from chick embryos, 21 kDa on SDS-PAGE; also called 21 kDa protein
  binding result: binds
